Assay results as given in US20260070986A1.

How the values were obtained:
[1] = target: recombinant murine FcγRIIB (CD32), biotinylated (murine) (UniProt P08101); experiment: SPR (Biacore T200), 37 C, biotin-captured receptor, steady-state affinity
[2] = target: recombinant human FcγRIIA (CD32A), biotinylated (human) (UniProt P12318); experiment: as above
[3] = target: recombinant cynomolgus FcγRIIA (CD32A), biotinylated (cynomolgus); experiment: SPR (Biacore), 37 °C, biotin-captured cynomolgus CD32A as ligand, steady-state affinity fit
[4] = target: recombinant human FcγRIIC (CD32C), biotinylated (human) (UniProt P31995); experiment: SPR (Biacore), 37 °C, biotin-captured human CD32C as ligand, steady-state affinity fit
Sequence of recombinant human FcγRIIC (CD32C), biotinylated (human) (P31995 43-223 limits assumed): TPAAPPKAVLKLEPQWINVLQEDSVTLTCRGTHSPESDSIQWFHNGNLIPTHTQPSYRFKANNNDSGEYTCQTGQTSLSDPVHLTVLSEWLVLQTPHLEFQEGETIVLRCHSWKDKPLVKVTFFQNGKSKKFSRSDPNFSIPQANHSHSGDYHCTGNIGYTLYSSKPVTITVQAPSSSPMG

[5] = target: recombinant cynomolgus FcγRIIB/C (CD32B/C), biotinylated (cynomolgus); experiment: SPR (Biacore), 37 °C, biotin-captured cynomolgus CD32B/C as ligand, steady-state affinity fit
[6] = target: recombinant human FcγRIIB (CD32B), biotinylated (human) (UniProt P31994); experiment: SPR (Biacore), 37 °C, biotin-captured human CD32B as ligand, steady-state affinity fit
Sequence of recombinant human FcγRIIB (CD32B), biotinylated (human) (P31994 43-217 limits assumed): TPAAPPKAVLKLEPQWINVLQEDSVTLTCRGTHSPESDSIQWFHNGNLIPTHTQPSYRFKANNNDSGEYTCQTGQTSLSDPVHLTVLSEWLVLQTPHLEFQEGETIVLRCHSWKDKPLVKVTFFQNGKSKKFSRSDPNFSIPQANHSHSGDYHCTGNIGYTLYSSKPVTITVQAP

[7] = target: CD16A endogenously expressed on primary human NK cells (human) (UniProt P08637); experiment: flow cytometry on primary human NK cells, biotinylated antibody, 37 C, without IgG, mean of 4
Sequence of CD16A endogenously expressed on primary human NK cells (human) (P08637 17-254 limits assumed): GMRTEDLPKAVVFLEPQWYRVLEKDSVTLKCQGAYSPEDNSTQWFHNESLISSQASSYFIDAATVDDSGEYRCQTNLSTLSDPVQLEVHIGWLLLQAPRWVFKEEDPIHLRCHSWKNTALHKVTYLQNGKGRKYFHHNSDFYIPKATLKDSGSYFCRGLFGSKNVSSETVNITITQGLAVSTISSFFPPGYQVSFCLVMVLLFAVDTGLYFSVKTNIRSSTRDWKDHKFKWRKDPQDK

[8] = target: CD16A endogenously expressed on primary human NK cells (human) (UniProt P08637); experiment: flow cytometry on primary human NK cells, 37 °C, biotinylated antibody, streptavidin-FITC, without polyclonal human IgG
[9] = target: human CD16A-mFc (158F) (sAg_107) (human) (UniProt P08637); experiment: ELISA, plate coated with human CD16A-mFc (158F), one-site fit, mean of 3
Sequence of human CD16A-mFc (158F) (sAg_107) (human) (P08637 17-208 limits assumed): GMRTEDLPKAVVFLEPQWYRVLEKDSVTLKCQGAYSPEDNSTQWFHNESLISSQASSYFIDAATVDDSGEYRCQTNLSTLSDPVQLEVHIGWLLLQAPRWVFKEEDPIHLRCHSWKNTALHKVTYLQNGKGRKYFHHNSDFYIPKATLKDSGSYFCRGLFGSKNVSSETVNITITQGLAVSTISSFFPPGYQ

[10] = target: human CD16A-mFc (158V) (sAg_149) (human) (UniProt P08637); experiment: ELISA on coated human CD16A-mFc (158V), anti-mouse HRP detection
[11] = target: CD16A endogenously expressed on primary human NK cells (human) (UniProt P08637); experiment: flow cytometry on primary human NK cells, biotinylated antibody, 37 C, with 10 mg/mL polyclonal human IgG as competitor, mean of 4
[12] = target: human CD16A-mFc (158F) (sAg_107) (human) (UniProt P08637); experiment: ELISA on coated human CD16A-mFc (158F), anti-mouse HRP detection

Sequence of control antibody MOR208 (anti-CD19 human IgG1 Fc enhanced) (HC): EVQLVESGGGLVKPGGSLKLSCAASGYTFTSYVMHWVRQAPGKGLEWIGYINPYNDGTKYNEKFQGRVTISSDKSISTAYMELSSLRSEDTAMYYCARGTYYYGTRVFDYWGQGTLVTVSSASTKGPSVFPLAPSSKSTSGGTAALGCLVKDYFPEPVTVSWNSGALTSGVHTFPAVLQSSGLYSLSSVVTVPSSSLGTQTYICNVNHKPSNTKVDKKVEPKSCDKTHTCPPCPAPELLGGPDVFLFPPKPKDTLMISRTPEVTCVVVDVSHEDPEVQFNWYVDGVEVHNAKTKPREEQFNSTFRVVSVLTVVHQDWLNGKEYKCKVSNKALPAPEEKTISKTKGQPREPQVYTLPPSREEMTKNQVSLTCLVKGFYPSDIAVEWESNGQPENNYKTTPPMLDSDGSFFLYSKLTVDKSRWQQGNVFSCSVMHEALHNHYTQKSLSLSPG
Sequence of control antibody MOR208 (anti-CD19 human IgG1 Fc enhanced) (LC): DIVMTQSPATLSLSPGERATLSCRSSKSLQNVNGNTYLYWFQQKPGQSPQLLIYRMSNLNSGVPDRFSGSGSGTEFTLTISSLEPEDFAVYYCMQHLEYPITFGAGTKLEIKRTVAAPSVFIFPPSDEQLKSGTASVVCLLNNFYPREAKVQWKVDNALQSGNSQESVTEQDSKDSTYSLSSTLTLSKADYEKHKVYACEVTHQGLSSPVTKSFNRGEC
Sequence of recombinant human FcγRIIA (CD32A), biotinylated (human) (P12318 34-218 limits assumed): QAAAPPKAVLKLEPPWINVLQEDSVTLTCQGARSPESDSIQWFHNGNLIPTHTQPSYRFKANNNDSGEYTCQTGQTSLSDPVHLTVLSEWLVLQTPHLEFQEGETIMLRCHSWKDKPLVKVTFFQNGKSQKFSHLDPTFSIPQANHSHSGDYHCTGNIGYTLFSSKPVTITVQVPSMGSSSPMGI
Sequence of recombinant murine FcγRIIB (CD32), biotinylated (murine) (P08101 30-207 limits assumed): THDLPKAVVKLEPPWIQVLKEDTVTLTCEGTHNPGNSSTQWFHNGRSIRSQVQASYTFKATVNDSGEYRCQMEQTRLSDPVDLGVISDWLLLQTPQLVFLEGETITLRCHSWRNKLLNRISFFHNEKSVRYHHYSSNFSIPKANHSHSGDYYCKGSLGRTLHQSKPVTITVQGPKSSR

| Kd [1] | Kd [2] | Kd [3] | Kd [4] | Kd [5] | Kd [6] | Kd [7] | EC50 (read off the curve) [8] | Kd [9] | EC50 (read off the curve) [10] | Kd [11] | EC50 (read off the curve) [12] | Substance |
| --- | --- | --- | --- | --- | --- | --- | --- | --- | --- | --- | --- | --- |
| 1750 nM | 223 nM | 263 nM | 474 nM | 351 nM | 821 nM | – | – | – | – | – | – | control antibody MOR208 (anti-CD19 human IgG1 Fc enhanced) |
| – | – | – | – | – | – | 0.3 nM | 0.4 nM | 0.02 nM | 0.3 nM | 54.6 nM | 0.03 nM | anti-human CD16 antibody clone 3G8 |
